The experiment deals with the receptor on THP-1 cells. The experiment in a line: cell-based or functional assay.

Positions of bridges follow the written chain, without caps; N, C: chain ends. Chains are numbered I, II in the order given. No end group written: not given here.

B1: recombinant human relaxin analog 800814 (ligand)
chain 1: DSWMEEVIKLCGRDLVRAQIAICGMSTWS
chain 2: DLYSALANKCCHVGCTKRSLARFC
modifications: disulfide I:23-II:24; also: two more disulfides among A10, A11, A15 and B11
Molecule B1 gave an EC50 (ng/ml) of cAMP induced in THP-1 cells (cAMP ELISA) of 1.5 ng/mL.

Values taken from patent US20160326230A1, “HUMAN RELAXIN ANALOGUE, PHARMACEUTICAL COMPOSITION OF SAME, AND PHARMACEUTICAL APPLICATION OF SAME” (SHANGHAI HENGRUI PHARMACEUTICAL CO., LTD., priority 2013, published 2016).
